Numbering of substitutions follows the chain as printed. Each block holds one binder with its values, some of them ahead of it.
Legend:
[1] = target: human PAC1 receptor extracellular domain (ECD) (human) (UniProt P41586); experiment: yeast-displayed Fab, FACS, 10 nM PAC1 receptor ECD
[2] = target: human CGRP receptor extracellular domain (ECD) (human) (UniProt Q16602); experiment: yeast-displayed Fab, FACS, 1 nM human CGRP receptor ECD
[3] = target: human CGRP receptor extracellular domain (ECD) (human) (UniProt Q16602); experiment: yeast-displayed Fab, FACS, 10 nM human CGRP receptor ECD

Sequence of human CGRP receptor extracellular domain (ECD) (human) (Q16602 23-138 limits assumed, chain 1 of 2): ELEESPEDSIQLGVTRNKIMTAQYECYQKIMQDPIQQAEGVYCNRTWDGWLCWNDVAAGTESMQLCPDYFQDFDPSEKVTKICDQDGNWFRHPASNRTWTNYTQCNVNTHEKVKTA
Sequence of human CGRP receptor extracellular domain (ECD) (human) (chain, as listed by the source limits assumed, chain 2 of 2): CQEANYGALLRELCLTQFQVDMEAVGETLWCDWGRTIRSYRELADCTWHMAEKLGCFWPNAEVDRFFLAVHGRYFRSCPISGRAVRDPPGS
Sequence of human PAC1 receptor extracellular domain (ECD) (human) (P41586 24-153): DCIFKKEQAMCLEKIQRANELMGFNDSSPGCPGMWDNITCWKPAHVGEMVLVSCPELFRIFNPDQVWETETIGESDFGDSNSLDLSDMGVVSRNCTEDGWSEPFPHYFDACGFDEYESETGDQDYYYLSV

Mutant vs. 4E4.2 Parent B/D Ratio [1]: 1.8 fold
Normalized Binding Signal/Display Signal (B/D) [1]: 0.2
B1: anti-CGRP receptor variant 05, yeast-displayed Fab (Fab, V domains shown)
VH: QVQLVESGGGVVQPGRSLRLSCAASGFTFSSFGMHWVRQAPGKGLEWVAVISFDGSIKYSVDSVKGRFTISRDNSKNTLFLQMNSLRAEDTAVYYCARDRLNYYESSGYYHYKYYGMAVWGQGTTVTVSS
VL: QSVLTQPPSVSAAPGQKVTISCSGSFSNIGRSTVSWYQQLPGTAPKLLIYDNRWRAGGIPDRFSGSKSGTSATLGITGLQTGDEADYYCGTWDYQWKAVVFGGGTKLTVLG

Mutant vs. 4E4.2 Parent B/D Ratio [1]: 1.8 fold
Normalized Binding Signal/Display Signal (B/D) [1]: 0.19
B2: anti-CGRP receptor variant 12, yeast-displayed Fab (Fab, V domains shown)
VH: B1 VH
VL: B1 VL with F26R, S32Y, T33S, W54Y, G57Q, Y94W, Q95A, W96T, K97T, A98S

Mutant vs. 4E4.2 Parent B/D Ratio [2]: 1 fold
Normalized Binding Signal/Display Signal (B/D) [2]: 0.12
Mutant vs. 4E4.2 Parent B/D Ratio [1]: 1 fold
Normalized Binding Signal/Display Signal (B/D) [1]: 0.11
Mutant vs. 4E4.2 Parent B/D Ratio [3]: 1 fold
Normalized Binding Signal/Display Signal (B/D) [3]: 0.15
B3: 4E4.2 parental Fab, yeast-displayed (Fab, V domains shown)
VH: B1 VH
VL: QSVLTQPPSVSAAPGQKVTISCSGSSSNIGNNYVSWYQQLPGTAPKLLIYDNNKRPSGIPDRFSGSKSGTSATLGITGLQTGDEADYYCGTWDSRLSAVVFGGGTKLTVLG

Source: patent US20220363770A1
